Laboratory results published in FireProtDB (doi:10.1021/bi00437a058).

B1: Ribonuclease, P00648 (parent)
chain: MMKMEGIALKKRLSWISVCLLVLVSAAGMLFSTAAKTETSSHKAHTEAQVINTFDGVADYLQTYHKLPDNYITKSEAQALGWVASKGNLADVAPGKSIGGDIFSNREGKLPGKSGRTWREADINYTSGFRNSDRILYSSDWLIYKTTDHYQTFTKIR

Variants of: B1
Conditions: Bacillus amyloliquefaciens, pH 6.3, Fluorescence, structure 1BNI, whole UniProt chain shown
[1] = 25 °C, Urea, MES 450 mM, reversible: yes (100%)
[2] = 48 °C, Thermal, MES 50 mM, reversible: yes (>85%)
[3] = Thermal, MES 50 mM, reversible: yes (>85%)
[4] = 25 °C, GdnHCl, MES 450 mM, reversible: yes (100%)

Variant	ddG of mutation (higher = less stable) [1]	denaturant m value [1]	denaturant midpoint (higher = more stable) [1]	unfolding free energy [1]	ddG of mutation (higher = less stable) [2]	Tm [3]	change of melting temperature, mutant - wild type (higher = more stable) [3]	unfolding enthalpy (van 't Hoff) [3]	ddG of mutation (higher = less stable) [4]	denaturant m value [4]	denaturant midpoint (higher = more stable) [4]	unfolding free energy [4]
MMKMEGIALKKRLSWISVCLLVLVSAAGMLFSTAAKTETSSHKAHTEAQVINTFDGVADYAQTYHKLPDNYITKSEAQALGWVASKGNLADVAPGKSIGGDIFSNREGKLPGKSGRTWREADINYTSGFRNSDRILYSSDWLIYKTTDHYQTFTKIR	4.65 kcal/mol	2.08 kcal/mol/M	2.29 M	4.77 kcal/mol	4.2 kcal/mol	42 °C	-11.9 °C	108 kcal/mol	–	–	–	–
MMKMEGIALKKRLSWISVCLLVLVSAAGMLFSTAAKTETSSHKAHTEAQVINTFDGVADYLQTYHKLPDNYITKSEAQALGWVASKGNLADVAPGKSIGGDIFSNREGKLPGKSGRTWREADINYTSGFRNSDRILYSSDWLVYKTTDHYQTFTKIR	0.74 kcal/mol	2.11 kcal/mol/M	4.11 M	8.68 kcal/mol	–	51.5 °C	-2.4 °C	121 kcal/mol	0.69 kcal/mol	4.64 kcal/mol/M	1.76 M	8.19 kcal/mol
MMKMEGIALKKRLSWISVCLLVLVSAAGMLFSTAAKTETSSHKAHTEAQVINTFDGVADYLQTYHKLPDNYITKSEAQALGWVASKGNLADVAPGKSIGGDIFSNREGKLPGKSGRTWREADINYTSGFRNSDRILYSSDWLAYKTTDHYQTFTKIR	3.13 kcal/mol	2.18 kcal/mol/M	2.89 M	6.29 kcal/mol	3.2 kcal/mol	44.9 °C	-9.6 °C	112 kcal/mol	2.72 kcal/mol	4.87 kcal/mol/M	1.26 M	6.16 kcal/mol
MMKMEGIALKKRLSWISVCLLVLVSAAGMLFSTAAKTETSSHKAHTEAQVINTFDGVADYLQTYHKLPDNYITKSEAQALGWVASKGNLADVAPGKSIGGDIFSNREGKLPGKSGRTWREADINYTSGFRNSDRALYSSDWLIYKTTDHYQTFTKIR	4.08 kcal/mol	2.16 kcal/mol/M	2.47 M	5.34 kcal/mol	3.9 kcal/mol	42.7 °C	-11.2 °C	106 kcal/mol	–	–	–	–
MMKMEGIALKKRLSWISVCLLVLVSAAGMLFSTAAKTETSSHKAHTEAQVINTFDGVADYLQTYHKLPDNYITKSEAQALGWVASKGNLADVAPGKSIGGDIFSNREGKLPGKSGRTWREADINYTSGFRNSDRVLYSSDWLIYKTTDHYQTFTKIR	1.47 kcal/mol	2.06 kcal/mol/M	3.87 M	7.95 kcal/mol	–	51 °C	-2.9 °C	117 kcal/mol	–	–	–	–
